Measurements reported in patent US8969060B2, “Modified glucose dehydrogenase” (Ikeda Food Research Co., Ltd., priority 2011, dated 2015).

B1: G352S: modified GLD: SEQ ID NO: 1 with substitution G352S (protein, listed as Aspergillus terreus)
chain: MLGKLSFLSALSLAVAAPLSNSTSAKYDYIVIGGGTSGLAVANRLSEDPNVNVLILEAGGSVWNNPNVTNVDGYGLAFGSDIDWQYQSVNQPYGGNLSQVLRAGKALGGTSTINGMAYTRAEDVQIDAWETIGNTGWTWKNLFPYYRKSENFTVPTKSQTSLGASYEAGAHGHEGPLDVAFTQIESNNLTTYLNRTFQGMGLPWTEDVNGGKMRGFNLYPSTVNLEEYVREDAARAYYWPYKSRPNLHVLLNTFANRIVWDGEAHDGHITASGVEITSRNGTVRVINAEKEVIVSAGALKSPAILELSGIGNPSVLDKHNIPVKVNLPTVGENLQDQVNSHMDASGNTSISSTKAVSYPDVYDVFGDEAESVAKQIRANLKQYAADTAKANGNIMKAADLERLFEVQYDLIFKGRVPIAEVLNYPGSATSVFAEFWALLPFARGSVHIGSSNPAEFPVINPNYFMLDWDAKSYVAVAKYIRRSFESYPLSSIVKESTPGYDVIPRNASEQSWKEWVFDKNYRSNFHPVGTAAMMPREIGGVVDERLNVYGTTNVRVVDASVLPFQVCGHLVSTLYAVAERAADLIKADAGRR
modifications: SIGNAL (1)..(19)
B2: K354C: modified GLD: SEQ ID NO: 1 with substitution K354C (protein, listed as Aspergillus terreus)
chain: MLGKLSFLSALSLAVAAPLSNSTSAKYDYIVIGGGTSGLAVANRLSEDPNVNVLILEAGGSVWNNPNVTNVDGYGLAFGSDIDWQYQSVNQPYGGNLSQVLRAGKALGGTSTINGMAYTRAEDVQIDAWETIGNTGWTWKNLFPYYRKSENFTVPTKSQTSLGASYEAGAHGHEGPLDVAFTQIESNNLTTYLNRTFQGMGLPWTEDVNGGKMRGFNLYPSTVNLEEYVREDAARAYYWPYKSRPNLHVLLNTFANRIVWDGEAHDGHITASGVEITSRNGTVRVINAEKEVIVSAGALKSPAILELSGIGNPSVLDKHNIPVKVNLPTVGENLQDQVNSHMDASGNTSISGTCAVSYPDVYDVFGDEAESVAKQIRANLKQYAADTAKANGNIMKAADLERLFEVQYDLIFKGRVPIAEVLNYPGSATSVFAEFWALLPFARGSVHIGSSNPAEFPVINPNYFMLDWDAKSYVAVAKYIRRSFESYPLSSIVKESTPGYDVIPRNASEQSWKEWVFDKNYRSNFHPVGTAAMMPREIGGVVDERLNVYGTTNVRVVDASVLPFQVCGHLVSTLYAVAERAADLIKADAGRR
modifications: SIGNAL (1)..(19)
B3: G352V: modified GLD: SEQ ID NO: 1 with substitution G352V (protein, listed as Aspergillus terreus)
chain: MLGKLSFLSALSLAVAAPLSNSTSAKYDYIVIGGGTSGLAVANRLSEDPNVNVLILEAGGSVWNNPNVTNVDGYGLAFGSDIDWQYQSVNQPYGGNLSQVLRAGKALGGTSTINGMAYTRAEDVQIDAWETIGNTGWTWKNLFPYYRKSENFTVPTKSQTSLGASYEAGAHGHEGPLDVAFTQIESNNLTTYLNRTFQGMGLPWTEDVNGGKMRGFNLYPSTVNLEEYVREDAARAYYWPYKSRPNLHVLLNTFANRIVWDGEAHDGHITASGVEITSRNGTVRVINAEKEVIVSAGALKSPAILELSGIGNPSVLDKHNIPVKVNLPTVGENLQDQVNSHMDASGNTSISVTKAVSYPDVYDVFGDEAESVAKQIRANLKQYAADTAKANGNIMKAADLERLFEVQYDLIFKGRVPIAEVLNYPGSATSVFAEFWALLPFARGSVHIGSSNPAEFPVINPNYFMLDWDAKSYVAVAKYIRRSFESYPLSSIVKESTPGYDVIPRNASEQSWKEWVFDKNYRSNFHPVGTAAMMPREIGGVVDERLNVYGTTNVRVVDASVLPFQVCGHLVSTLYAVAERAADLIKADAGRR
modifications: SIGNAL (1)..(19)
B4: K354A: modified GLD: SEQ ID NO: 1 with substitution K354A (protein, listed as Aspergillus terreus)
chain: MLGKLSFLSALSLAVAAPLSNSTSAKYDYIVIGGGTSGLAVANRLSEDPNVNVLILEAGGSVWNNPNVTNVDGYGLAFGSDIDWQYQSVNQPYGGNLSQVLRAGKALGGTSTINGMAYTRAEDVQIDAWETIGNTGWTWKNLFPYYRKSENFTVPTKSQTSLGASYEAGAHGHEGPLDVAFTQIESNNLTTYLNRTFQGMGLPWTEDVNGGKMRGFNLYPSTVNLEEYVREDAARAYYWPYKSRPNLHVLLNTFANRIVWDGEAHDGHITASGVEITSRNGTVRVINAEKEVIVSAGALKSPAILELSGIGNPSVLDKHNIPVKVNLPTVGENLQDQVNSHMDASGNTSISGTAAVSYPDVYDVFGDEAESVAKQIRANLKQYAADTAKANGNIMKAADLERLFEVQYDLIFKGRVPIAEVLNYPGSATSVFAEFWALLPFARGSVHIGSSNPAEFPVINPNYFMLDWDAKSYVAVAKYIRRSFESYPLSSIVKESTPGYDVIPRNASEQSWKEWVFDKNYRSNFHPVGTAAMMPREIGGVVDERLNVYGTTNVRVVDASVLPFQVCGHLVSTLYAVAERAADLIKADAGRR
modifications: SIGNAL (1)..(19)
B5: G352W: modified GLD: SEQ ID NO: 1 with substitution G352W (protein, listed as Aspergillus terreus)
chain: MLGKLSFLSALSLAVAAPLSNSTSAKYDYIVIGGGTSGLAVANRLSEDPNVNVLILEAGGSVWNNPNVTNVDGYGLAFGSDIDWQYQSVNQPYGGNLSQVLRAGKALGGTSTINGMAYTRAEDVQIDAWETIGNTGWTWKNLFPYYRKSENFTVPTKSQTSLGASYEAGAHGHEGPLDVAFTQIESNNLTTYLNRTFQGMGLPWTEDVNGGKMRGFNLYPSTVNLEEYVREDAARAYYWPYKSRPNLHVLLNTFANRIVWDGEAHDGHITASGVEITSRNGTVRVINAEKEVIVSAGALKSPAILELSGIGNPSVLDKHNIPVKVNLPTVGENLQDQVNSHMDASGNTSISWTKAVSYPDVYDVFGDEAESVAKQIRANLKQYAADTAKANGNIMKAADLERLFEVQYDLIFKGRVPIAEVLNYPGSATSVFAEFWALLPFARGSVHIGSSNPAEFPVINPNYFMLDWDAKSYVAVAKYIRRSFESYPLSSIVKESTPGYDVIPRNASEQSWKEWVFDKNYRSNFHPVGTAAMMPREIGGVVDERLNVYGTTNVRVVDASVLPFQVCGHLVSTLYAVAERAADLIKADAGRR
modifications: SIGNAL (1)..(19)
B6: G352Y: modified GLD: SEQ ID NO: 1 with substitution G352Y (protein, listed as Aspergillus terreus)
chain: MLGKLSFLSALSLAVAAPLSNSTSAKYDYIVIGGGTSGLAVANRLSEDPNVNVLILEAGGSVWNNPNVTNVDGYGLAFGSDIDWQYQSVNQPYGGNLSQVLRAGKALGGTSTINGMAYTRAEDVQIDAWETIGNTGWTWKNLFPYYRKSENFTVPTKSQTSLGASYEAGAHGHEGPLDVAFTQIESNNLTTYLNRTFQGMGLPWTEDVNGGKMRGFNLYPSTVNLEEYVREDAARAYYWPYKSRPNLHVLLNTFANRIVWDGEAHDGHITASGVEITSRNGTVRVINAEKEVIVSAGALKSPAILELSGIGNPSVLDKHNIPVKVNLPTVGENLQDQVNSHMDASGNTSISYTKAVSYPDVYDVFGDEAESVAKQIRANLKQYAADTAKANGNIMKAADLERLFEVQYDLIFKGRVPIAEVLNYPGSATSVFAEFWALLPFARGSVHIGSSNPAEFPVINPNYFMLDWDAKSYVAVAKYIRRSFESYPLSSIVKESTPGYDVIPRNASEQSWKEWVFDKNYRSNFHPVGTAAMMPREIGGVVDERLNVYGTTNVRVVDASVLPFQVCGHLVSTLYAVAERAADLIKADAGRR
modifications: SIGNAL (1)..(19)
B7: K354D: modified GLD: SEQ ID NO: 1 with substitution K354D (protein, listed as Aspergillus terreus)
chain: MLGKLSFLSALSLAVAAPLSNSTSAKYDYIVIGGGTSGLAVANRLSEDPNVNVLILEAGGSVWNNPNVTNVDGYGLAFGSDIDWQYQSVNQPYGGNLSQVLRAGKALGGTSTINGMAYTRAEDVQIDAWETIGNTGWTWKNLFPYYRKSENFTVPTKSQTSLGASYEAGAHGHEGPLDVAFTQIESNNLTTYLNRTFQGMGLPWTEDVNGGKMRGFNLYPSTVNLEEYVREDAARAYYWPYKSRPNLHVLLNTFANRIVWDGEAHDGHITASGVEITSRNGTVRVINAEKEVIVSAGALKSPAILELSGIGNPSVLDKHNIPVKVNLPTVGENLQDQVNSHMDASGNTSISGTDAVSYPDVYDVFGDEAESVAKQIRANLKQYAADTAKANGNIMKAADLERLFEVQYDLIFKGRVPIAEVLNYPGSATSVFAEFWALLPFARGSVHIGSSNPAEFPVINPNYFMLDWDAKSYVAVAKYIRRSFESYPLSSIVKESTPGYDVIPRNASEQSWKEWVFDKNYRSNFHPVGTAAMMPREIGGVVDERLNVYGTTNVRVVDASVLPFQVCGHLVSTLYAVAERAADLIKADAGRR
modifications: SIGNAL (1)..(19)
B8: G352T: modified GLD: SEQ ID NO: 1 with substitution G352T (protein, listed as Aspergillus terreus)
chain: MLGKLSFLSALSLAVAAPLSNSTSAKYDYIVIGGGTSGLAVANRLSEDPNVNVLILEAGGSVWNNPNVTNVDGYGLAFGSDIDWQYQSVNQPYGGNLSQVLRAGKALGGTSTINGMAYTRAEDVQIDAWETIGNTGWTWKNLFPYYRKSENFTVPTKSQTSLGASYEAGAHGHEGPLDVAFTQIESNNLTTYLNRTFQGMGLPWTEDVNGGKMRGFNLYPSTVNLEEYVREDAARAYYWPYKSRPNLHVLLNTFANRIVWDGEAHDGHITASGVEITSRNGTVRVINAEKEVIVSAGALKSPAILELSGIGNPSVLDKHNIPVKVNLPTVGENLQDQVNSHMDASGNTSISTTKAVSYPDVYDVFGDEAESVAKQIRANLKQYAADTAKANGNIMKAADLERLFEVQYDLIFKGRVPIAEVLNYPGSATSVFAEFWALLPFARGSVHIGSSNPAEFPVINPNYFMLDWDAKSYVAVAKYIRRSFESYPLSSIVKESTPGYDVIPRNASEQSWKEWVFDKNYRSNFHPVGTAAMMPREIGGVVDERLNVYGTTNVRVVDASVLPFQVCGHLVSTLYAVAERAADLIKADAGRR
modifications: SIGNAL (1)..(19)

How the values were obtained:
[1] = Relative enzymatic activity of GLD (DCIP/1-m-PMS, plate reader, yeast culture supernatant) with 1,10-phenanthroline present; type: biochemical; details: site-specific mutants, inhibitor final concentration 1 mM
Method in brief: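 Yeast transformants grown in YPD, 30° C., 24 h; diluted culture supernatant assayed in phosphate buffer pH 7.0 with D-glucose, DCIP and 1-m-PMS, DCIP absorbance change at 600 nm. Relative activity (%) = activity with 1 mM 1,10-phenanthroline (final, replacing methanol) divided by activity without it.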

[2] = Relative enzymatic activity of GLD (DCIP/1-m-PMS, plate reader, yeast culture supernatant) with proflavin hydrochloride present; type: biochemical; details: site-specific mutants, inhibitor final concentration 1 mM
Method in brief: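 Culture supernatant diluted and mixed with reagent of phosphate buffer pH 7.0, 1.0 M D-glucose, 3 mM DCIP, 3 mM 1-m-PMS and methanol (0.1:1:0.14:0.2:0.06). DCIP absorbance decrease at 600 nm followed; proflavin hydrochloride in methanol replaced methanol at 1 mM final. Activity expressed as % of inhibitor-free blank.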

Row | Molecule | Relative Activity [%] 1,10-Phenanthroline [1] [%] | Relative Activity [%] Proflavin hydrochloride [2] [%]
1 | B1 | 62.9 | 38.7
2 | B2 | 62.6 | 14.4
3 | B3 | 87.0 | 41.6
4 | B4 | 66.2 | 8.9
5 | B5 | 81.2 | 48.1
6 | B6 | 92.4 | 52.8
7 | B7 | 70.8 | 11.6
8 | B8 | 85.4 | 44.1
